According to patent US20240252614A1 (Pfizer, published 2024):

Experiments:
[1] = biological target: stabilized hPIV3 F protein trimer in pre-fusion conformation (human parainfluenza virus 3); assay: BLI, mAb captured, F protein at 50 nM
[2] = biological target: T1, stabilized hMPV F protein trimer in pre-fusion conformation (human metapneumovirus); assay: BLI, mAb captured, F protein at 50 nM
T1 construct: also called preF-hMPV; hMPV pre-fusion F protein

[3] = biological target: T2, hMPV123 (hMPV B, UniProt Q6WB98 19-102); assay: BLI, no stress
T2 construct: A140C-S149C, G239A, T411C-Q434C

[4] = biological target: T3, hMPV138 (hMPV B, UniProt Q6WB98 19-102); assay: BLI, no stress
T3 construct: T49I, A140C-S149C, A459P

[5] = biological target: T4, hMPV134 (hMPV B, UniProt Q6WB98 19-102); assay: BLI, no stress
T4 construct: T49I, L141C-A161C, S149T, G239A, T365I, T411C-Q434C, A459P

[6] = biological target: T5, hMPV125 (hMPV B, UniProt Q6WB98 19-102); assay: BLI, no stress
T5 construct: L141C-A161C, G239A, T411C-Q434C

[7] = biological target: T6, hMPV119 (hMPV B, UniProt Q6WB98 19-102); assay: BLI, no stress
T6 construct: T49I, T150C-R156C, A459P

[8] = biological target: T7, hMPV131 (hMPV B, UniProt Q6WB98 19-102); assay: BLI, no stress
T7 construct: T49I, L141C-A161C, G239A, T411C-Q434C, A459P

[9] = biological target: T8, hMPV139 (hMPV B, UniProt Q6WB98 19-102); assay: BLI, no stress
T8 construct: T49I, L141C-A161C, T411C-Q434C

[10] = biological target: T9, hMPV140 (hMPV B, UniProt Q6WB98 19-102); assay: BLI, no stress
T9 construct: T49I, L141C-A161C, T411C-Q434C, A459P

[11] = biological target: T10, hMPV118 (hMPV B, UniProt Q6WB98 19-102); assay: BLI, no stress
T10 construct: T49I, T150C-R156C

[12] = biological target: T11, hMPV144 (hMPV B, UniProt Q6WB98 19-102); assay: BLI, no stress
T11 construct: T49I, L141C-A161C, S149T, A459P

[13] = biological target: T12, hMPV117 (hMPV B, UniProt Q6WB98 19-102); assay: BLI, no stress
T12 construct: T150C-R156C, A459P

[14] = biological target: T13, hMPV142 (hMPV B, UniProt Q6WB98 19-102); assay: BLI, no stress
T13 construct: L141C-A161C, S149T, A459P

[15] = biological target: T14, hMPV122 (hMPV B, UniProt Q6WB98 19-102); assay: BLI, no stress
T14 construct: A140C-S149C, T411C-Q434C, A459P

[16] = biological target: T15, hMPV127 (hMPV B, UniProt Q6WB98 19-102); assay: BLI, no stress
T15 construct: A140C-S149C, G239A, T411C-Q434C, A459P

[17] = biological target: hMPV B F WT Control (hMPV B, UniProt Q6WB98 19-102); assay: BLI, no stress
[18] = biological target: T16, hMPV120 (hMPV B, UniProt Q6WB98 19-102); assay: BLI, no stress
T16 construct: A140C-S149C, T411C-Q434C

[19] = biological target: T17, hMPV124 (hMPV B, UniProt Q6WB98 19-102); assay: BLI, no stress
T17 construct: L141C-A161C, T411C-Q434C, A459P

[20] = biological target: T18, hMPV136 (hMPV B, UniProt Q6WB98 19-102); assay: BLI, no stress
T18 construct: A140C-S149C, A459P

[21] = biological target: T19, hMPV133 (hMPV B, UniProt Q6WB98 19-102); assay: BLI, no stress
T19 construct: T49I, L141C-A161C, S149T, G239A, T411C-Q434C, A459P

[22] = biological target: T20, hMPV128 (hMPV B, UniProt Q6WB98 19-102); assay: BLI, no stress
T20 construct: T49I, A140C-S149C, G239A, T411C-Q434C, A459P

[23] = biological target: T21, hMPV137 (hMPV B, UniProt Q6WB98 19-102); assay: BLI, no stress
T21 construct: T49I, A140C-S149C

[24] = biological target: T22, hMPV130 (hMPV B, UniProt Q6WB98 19-102); assay: BLI, no stress
T22 construct: L141C-A161C, G239A, T411C-Q434C, A459P

[25] = biological target: T23, hMPV135 (hMPV B, UniProt Q6WB98 19-102); assay: BLI, no stress
T23 construct: T49I, S149T, A459P

[26] = biological target: T24, hMPV121 (hMPV B, UniProt Q6WB98 19-102); assay: BLI, no stress
T24 construct: L141C-A161C, T411C-Q434C

[27] = biological target: T25, hMPV126 (hMPV B, UniProt Q6WB98 19-102); assay: BLI, no stress
T25 construct: T49I, T150C-R156C, G239A, A459P

[28] = biological target: T26, hMPV129 (hMPV B, UniProt Q6WB98 19-102); assay: BLI, no stress
T26 construct: T49I, A140C-S149C, G239A, T365I, T411C-Q434C, A459P

[29] = biological target: T27, hMPV132 (hMPV B, UniProt Q6WB98 19-102); assay: BLI, no stress
T27 construct: L141C-A161C, S149T, G239A, T411C-Q434C, A459P

B1: PIV1-8 mAb (antibody, V domains shown)
VH: QVQLVQSGAEVKKPGSSVKVSCEASGGTFSNYVISWVRQAPGQGLEWMGGIIPVFATAKYAQKFQGRVTIIADQSTNTAYLELSSLRSDDTAVYFCASVDSGGTWWDAFAIWGQGTMVTVSS
VL: QAVVTQPRSVSGSPGQAVTISCTGTSSDVGGYNYVSWYQHHPGKAPKLIIYDVTKRPSGVPDRFSGSKSGNTASLTISGLQTEYEADYYCCSYAGSYTLVFGGGTKLTVLG
notes: human IgG1; also called hPIV1-8 mAb; hPIV1-8
In the case of B1, the “Binding response BLI” value [1] is reported as -0.052 nm and the “Binding response BLI” value [2] is reported as -0.051 nm.

B2: hMPV-2 mAb (antibody, V domains shown)
VH: QVQLQQSGAEVKKPGASVKVSCKASGYTFTSYGISWVRQAPGQGLEWMGWISGYNGNTNYAQTFQGTFTMTTDTSTSTAYMELRRLRSGDTAVYYCARDRYYASGSYNGMDVWGQGTTVTVSS
VL: QSALTQPPSASGAPGQRVTVSCSGSSSNVGSSSVYWYQQLPGTAPKLLIYRNNQRPSGVPDRFSGSKSGTSASLAISGLRSEDEADYYCAAWDDSLSGWVFGGGTKLTVLG
notes: human IgG1
B2 was tested, and the “Binding response BLI” value [2] was 1.21 nm, the “Response Shift” value [3] was 0.619 nm and the “Response Shift” value [4] was 0.681 nm. For the same binder, the “Response Shift” value [5] was 0.718 nm, the “Response Shift” value [6] was 0.847 nm and the “Response Shift” value [7] was 0.864 nm. The “Response Shift” value [8] was 0.727 nm, the “Response Shift” value [9] was 0.699 nm and the “Response Shift” value [10] was 0.731 nm. For the same binder, the “Response Shift” value [11] was 0.844 nm, the “Response Shift” value [12] was 0.712 nm and the “Response Shift” value [13] was 0.723 nm. For the same binder, the “Response Shift” value [14] was 0.731 nm, the “Response Shift” value [15] was 0.73 nm and the “Response Shift” value [16] was 0.719 nm. The “Response Shift” value [17] was 0.82 nm, the “Response Shift” value [18] was 0.593 nm and the “Response Shift” value [19] was 0.833 nm. The “Response Shift” value [20] was 0.591 nm, the “Response Shift” value [21] was 0.677 nm and the “Response Shift” value [22] was 0.777 nm. The “Response Shift” value [23] was 0.663 nm, the “Response Shift” value [24] was 0.71 nm and the “Response Shift” value [25] was 0.73 nm. For the same binder, the “Response Shift” value [26] was 0.842 nm, the “Response Shift” value [27] was 0.773 nm and the “Response Shift” value [28] was 0.687 nm. For the same binder, the “Response Shift” value [29] was 0.704 nm.
